Measurements as given in patent publication US6485936 (HSP RESEARCH INSTITUTE, dated 2002).

T1: GST-HSF2N96C328 (human, UniProt Q03933 96-328)
T1 construct: Expressed in E. coli and immobilized on glutathione-Sepharose; also called HSF2N96C328 (GST fusion); not shown: glutathione S-transferase (GST) encoded by the pGEX-5X-1 vector (Pharmacia)
T1 sequence (looked up): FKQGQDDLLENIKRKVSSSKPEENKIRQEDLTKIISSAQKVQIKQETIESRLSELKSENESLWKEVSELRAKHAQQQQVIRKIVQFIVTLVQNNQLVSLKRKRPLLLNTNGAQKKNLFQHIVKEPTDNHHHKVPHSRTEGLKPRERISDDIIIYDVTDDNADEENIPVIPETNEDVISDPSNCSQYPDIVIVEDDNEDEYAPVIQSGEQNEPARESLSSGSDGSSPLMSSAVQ


What was measured:
GST-HSF2N96C328 [1] = molecular target: T1, GST-HSF2N96C328; experiment: GST pull-down with GST-HSF2N96C328; 35S-labeled in vitro translated protein
GST-HSF2N96C328 [2] = molecular target: T1, GST-HSF2N96C328; experiment: GST pull-down, 35S-labeled in vitro translated deletion mutant

Binder	proportion bound (% of the level of input) (GST-HSF2N96C328 [1])	binding result (GST-HSF2N96C328 [2])
HSF2 binding protein (HSF2BP), in vitro translated, 35S-methionine-labeled (other, 35S-methionine label, In vitro translated (TNT kit) from HSF2BP cDNA in pcDNA 3.1 His A, B or C; also called human HSF2BP; intact HSF2BP) MGEAGAAEEACRHMGTKEEFVKVRKKDLERLTTEVMQIRDFLPRILNGEVLESFQKLKIVEKNLERKEQELEQLKMDCEHFKARLETVQADNIREKKEKLALRQQLNEAKQQLLQQAEYCTEMGAAACTLLWGVSSSEEVVKAILGGDKALKFFSITGQTMESFVKSLDGDVQELDSDESQFVFALAGIVTNVAAIACGREFLVNSSRVLLDTILQLLGDLKPGQCTKLKVLMLMSLYNVSINLKGLKYISESPGFIPLLWWLLSDPDAEVCLHVLRLVQSVVLEPEVFSKSASEFRSSLPLQRILAMSKSRNPRLQTAAQELLEDLRTLEHNV	12.9 % of the level of input	–
BP-C115 (deletion mutant of HSF2BP), in vitro translated, 35S-methionine-labeled (other, 35S-methionine label) MGEAGAAEEACRHMGTKEEFVKVRKKDLERLTTEVMQIRDFLPRILNGEVLESFQKLKIVEKNLERKEQELEQLKMDCEHFKARLETVQADNIREKKEKLALRQQLNEAKQQLLQ	5.7 % of the level of input	–
BP-C150 (deletion mutant of HSF2BP), in vitro translated, 35S-methionine-labeled (other, 35S-methionine label, Vector pcDNA 3.1 His; tag residues are not described) MGEAGAAEEACRHMGTKEEFVKVRKKDLERLTTEVMQIRDFLPRILNGEVLESFQKLKIVEKNLERKEQELEQLKMDCEHFKARLETVQADNIREKKEKLALRQQLNEAKQQLLQQAEYCTEMGAAACTLLWGVSSSEEVVKAILGGDKA	22.3 % of the level of input	–

Second part, the binder after the results:

proportion bound (% of the level of input) (GST-HSF2N96C328 [1])	binding result (GST-HSF2N96C328 [2])	Binder
–	no binding	BP-N115 (deletion mutant of HSF2BP), in vitro translated, 35S-methionine-labeled (other, 35S-methionine label) QQAEYCTEMGAAACTLLWGVSSSEEVVKAILGGDKALKFFSITGQTMESFVKSLDGDVQELDSDESQFVFALAGIVTNVAAIACGREFLVNSSRVLLDTILQLLGDLKPGQCTKLKVLMLMSLYNVSINLKGLKYISESPGFIPLLWWLLSDPDAEVCLHVLRLVQSVVLEPEVFSKSASEFRSSLPLQRILAMSKSRNPRLQTAAQELLEDLRTLEHNV
–	no binding	BP-C73 (deletion mutant of HSF2BP), in vitro translated, 35S-methionine-labeled (other, 35S-methionine label) MGEAGAAEEACRHMGTKEEFVKVRKKDLERLTTEVMQIRDFLPRILNGEVLESFQKLKIVEKNLERKEQELEQ
